This note sets out measurements from the DeepSol protein solubility set.

The nature of this series: soluble on expression in E. coli; label from the status in PepcDB or PDB records.
“MKITKISLFQKVLPYCSGSLAIGDLSENRTKPFDTFTSSVVVINTDQGVSGVGESCPWVSDNLNEKEVYDCLASRLLGEDPHNLKGIVKNMDAVIQGHTFAKSAIDMACWDIKAKDNGVPLFELLGGMLTDGAPLYRCVMEQEHDKIKAEVEQYRASGYKYFKLRVGIEPDKDIELIKFAANLAEPGEIVYADANCRWTLSEALEVVKAIEGLDVMIEQPCLSYEDCIKVRENTGLLIKLDELVTDLTMAKKIVRDHTADVVCIKMSRVGGLSKALEIRDFFVKKGIKVVTECMMGGEIVSAAVSHFSASTPSEFLFNTGDLHAYVTASTGNISPPTLNGRIYCNDSPGLGVEPDLTSLGTPIAIYQN”: the “soluble on expression in E. coli” value is recorded as “soluble”. Next, “MKIVDVLCTPGLTGFYFDDQRAIKKGAGHDGFTYTGSTVTEGFTQVRQKGESISVLLVLEDGQVAHGDCAAVQYSGAGGRDPLFLAKDFIPVIEKEIAPKLIGREITNFKPMAEEFDKMTVNGNRLHTAIRYGITQAILDAVAKTRKVTMAEVIRDEYNPGAEINAVPVFAQSGDDRYDNVDKMIIKEADVLPHALINNVEEKLGLKGEKLLEYVKWLRDRIIKLRVREDYAPIFHIDVYGTIGAAFDVDIKAMADYIQTLAEAAKPFHLRIEGPMDVEDRQKQMEAMRDLRAELDGRGVDAELVADEWCNTVEDVKFFTDNKAGHMVQIKTPDLGGVNNIADAIMYCKANGMGAYCGGTCNETNRSAEVTTNIGMACGARQVLAKPGMGVDEGMMIVKNEMNRVLALVGRRK”: “soluble”. Next, “MKIWSKEEVVNKLHEIKNKGYLSVPTDMFRTDDGVVGQILERQFGVQENNITLGDLGEFELKGMRNRKAKSNLTLFHKKPVAGQTVIQIFNRFGYVKPSSRNPEVMKKKLFTTIKGGRLNNLGLTLNAKHASEINLYYQDEYLSTWDLNLSKIEKLVLVFAETIGRANSPEEQFHFTKAYMLTEINDITSLINDGVLVMDLCIDQDLSKSKGPHDRGPHLRIPISKLDKLYRNIERLL”: “soluble”; “MKIYYLGPEGSYTEKAALKFAELTNLKITPAESIYSVFREVERGNYGVVPTENSIEGSVTLTLDLLLRFPVKIFGETSLEIKHALLGYDLSKIRVVLSHPQALAQCREFIQRMRWGVRETNSTAEAVKIVAESNDPTLAAIGSREAAEIYGLKVLAEDIQDYPNNKTRFILIGREDM”: “not soluble”; “MKKAVVLLSGGMDSATTLAIARQSGFACYALSIDYGQRHVAELAAAARIGQSLQVSDHQFLKLDLAVLASSVLTDISATVPLHGTSTGIPVTYVPARNTIMLALALAWAEVLGSHDIFIGVTAVDYSGYPDCRRDYIDAFEKMANLATKAGREGMVLTVHAPLIDLPKREIIQCGMELGIDYGLTVSCYQADEAGYACGQCDACHIRRAGFEAADIPDPTCYRNKQIS”: “not soluble”. Next, “MKKDIILSGVGGQGILSIATVIGKAALKDGLYMKQAEVHGMSQRGGDVQSNLRISDQPIASDLIPSGKCDLIISLEPMEGLRYLPYLGHEGWLVTNETPFVNIPNYPAESDVMAEINKLPHKVVLNVDKVAKELGSTRVANIVLLGATIPFLGIDYEKIQDSIREIFQRKGDAIVELNLKALAAGKEIAEK”: “soluble”. “MKKDIILSGVGGQGILSIATVIGKAALKEGLYMKQAEVHGMSQRGGDVQSNLRISDKPIASDLIPSGKCDLIISLEPMEGLRYLPYLSPEGWLVTNETPFVNIPNYPEEDKVMAEINKLPHKIVLNVDKVAKEVGSARVANIVLLGATIPFLGIDYEKVQDSIREIFLRKGEAIVEMNLKALAAGKEIAEKLMQ”: the “soluble on expression in E. coli” value was “not soluble”.

Turning to “MKKIGFVGAGSMAEAMINGILQSGITKPEHIYITNRSNDERLIELKETYSVRPCRDKNEFFTHTDIIILAFKPKDAAESIDSIRPYIKDQLVISVLAGLTIETIQHYFGRKLAVIRVMPNTSAAIRKSATGFSVSTEASKNDIIAAKALLETIGDATLVEERHLDAVTAIAGSGPAYVYRYIEAMEKAAQKVGLDKETAKALILQTMAGATDMLLQSGKQPEKLRKEITSPGGTTEAGLRALQDSRFEEAIIHCIEETAKRSAEIKEQFAGAALERHSLEHHHHHH”, the “soluble on expression in E. coli” value is “soluble”. Next, “MKKIHPSAVIEEGAQLGDDVVIEAYAYVSKDAKIGNNVVIKQGARILSDTTIGDHSRVFSYAIVGDIPQDISYKEEQKSGVVIGKNATIREFATINSGTAKGDGFTRIGDNAFIMAYCHIAHDCLLGNNIILANNATLAGHVELGDFTVVGGLTPIHQFVKVGEGCMIAGASALSQDIVPFCLAEGNRASIRSLNLVGIRRRFDKDEVDRLSRAFKTLFRQGDLKENAKNLLENQESENVKKMCHFILETKRGIPVYRGKNNA”: “soluble”.

As to “MKKILLLILITGLFSFGNSKNKIPTRKFTSVKISGPRYRLEGAFGILSSKENSSYMNNRFISNSISLLSEWKVQVNEKIDATFGPKVTLDFSFSIFKGLYTYKPNLNLGAEANFNYRIKEKMKVYGGVEIGTGVGISIENANIHKTILTTISKISVGVKINDKYNIGVYLGNNIKGMLGIEAGYTF”, the “soluble on expression in E. coli” value is reported as “not soluble”. Under “MKKILVTGSLGQIGSELVMKLRDVYGASNVIATDIRETDSEVVTSGPFETLDVTDGQKLHDIAKRNEVDTIIHLAALLSATAEKNPLFAWNLNMGGLVNALEAARELNCKFFTPSSIGAFGPSTPKDNTPQDTIQRPTTMYGVNKVAGELLCDYYHQKFGVDTRGVRFPGLISYVAPPGGGTTDYAVEIYYEAIKKGAYTSYIAEGTYMDMMYMPDALQAIISLMEADPSKLVHRNAFNITAMSFEPEQIAASIRKHIPTFTMDYAVDPARQTIADSWPNSIDATAAMKEWGFKAEYDLDKMTTDMLAKLKKKLTAELVMN” stands “not soluble”; under “MKKISIEERPDWRATAEREGFNFHTIDGERYWDERGYYLFTEQQITRDLEAPTQALHQMCMDAVARVVDSEELLHQLAIPPAFFDVIQTSWKQGHPHLYARFDFAYDGTGPAKMYEINADTPTSLMEAGAFQLLWLEEQMARGVLPAHASQFNSIAEDLVRAFAEFPGASPFYFAAMSGSVEDRVTTDFLRRMAAHVGIDARHIDIEDIGLNDQGRFVDLDGRWIERLFKLHAWEHIFHEAFGKNVTASGTQFVEPAWKAILSNKGILPLLWQFNEGHPNLLPSRVDQDVTKPVPKGWVRKPYFSREGANIEMRTPGDQVIAVDGPYTDAPYILQAYSPLPKFGDSYTLIGSWVIGDLASGIGIREDDSLITKDTSRFLPHVVID”, “not soluble”; under “MKKKIGLLVMAYGTPYKEEDIERYYTHIRRGRKPSPEMLEDLTERYRAIGGISPLATITLEQAKKLEKRLNEVQDEVEYHMYLGLKHIEPFIEDAVKEMHNDGIQDAIALVLAPHYSTFSVKSYVGRAQEEAEKLGNLTIHGIDSWYKEPKFIQYWVDAVKSIYSGMSDAEREKAVLIVSAHSLPEKIIAMGDPYPDQLNETADYIARGAEVANYAVGWQSAGNTPDPWIGPDVQDLTRELNEKYGYTSFVYAPVGFVAEHLEVLYDNDFECKVVTDEIGAKYYRPEMPNASDAFIDCLTDVVVKKKESVM”, “soluble”. Next, “MKKKTTLSEEDQALFRQLMAGTRKIKQDTIVHRPQRKKISEVPVKRLIQEQADASHYFSDEFQPLLNTEGPVKYVRPDVSHFEAKKLRRGDYSPELFLDLHGLTQLQAKQELGALIAACRREHVFCACVMHGHGKHILKQQTPLWLAQHPHVMAFHQAPKEYGGDAALLVLIEVEEWLPPELP”: “not soluble”. Under “MKKLIINYTELVDYLLENRGMDGYIYFYESMETEQGIVISFSTFDTGDSIYRMKFCPSDHGYDTSLEPGSYSQSEYGTSFEEEDVEGYIAGLDEIIADKYKEFYDEDVEVVFVD” stands “soluble”.

Turning to “MKKMAFAAIALGLVACAPAQQQRLVYPPTVEVERIQLTSFSLPAPGRAAVAGVRLELNVDNPNPLPVRLVQLAGVLVLDGQEAGTVTVPDIRLPGQGRARQVAQLTLPVTFKTATTFLNIARGQEVSYRLDGTLTADLGPLGQPTFGPFTLTQGVWKQAPLSVF”, the “soluble on expression in E. coli” value is recorded as “soluble”.

As for “MKKMFLILASAVVSLTACSKDSGDDDSPPIEKQPFNAVIKDGFKDENGVDLLPPRNIGNIKVGDYIPYNVTITDEVAEQEGETYRVVASTYDEGTHQERSVSYDIYLADKEDPTKMVLLENPEQLTFNKRGTYSFFIYPKEAGTYNLRFLLEKSVNNQKIGTSAIPIVTFNAVRITAYSHGYFTGKWKWEWSDSFIPILEEHSVNRRKFFFKIDDGSTEKDKYLQPEKAGIFYFTEYNGDNRGPLSFTVGAEYEYYPEQERTRAIQYLIFLLLK”, the “soluble on expression in E. coli” value is on record as “not soluble”. Consider “MKKQVVEVLVEGGKATPGPPLGPAIGPLGLNVKQVVDKINEATKEFAGMQVPVKIIVDPVTKQFEIEVGVPPTSQLIKKELGLEKGSGEPKHNIVGNLTMEQVIKIAKMKRSQMLALTLKAAAKEVIGTALSMGVTVEGKDPRIVQREIDEGVYDELFEKAEKE”, for which the “soluble on expression in E. coli” value is “soluble”. With “MKKRAGIWAALLLAAVMLAGCGNPADQKDSKAKQKTEVFPVTIDDASNQDVTIKKEPKKIVSLMPSNTEITYALGLGDKVVGVTTNDTYPKEVKKVEKVGDMNVNVEKVISLKPDLVLAHESSMSASADAIKQLKDAGITVLTVNDAQSFSEVYKSIEMIGEAGGAEKKADQLVKSMKSDLKDIQEKAKTISKDEEKSVFIEVSPDPDIYTTGKDTFMNEMLNVIHAKNAAADQTGWVQMTDEAIVKLNPDAIVTTDGVKAKAVEKRDGWSEINAVKHHRVYDVDPDLVTRSGPRLIEGVEELAESIYPDTFKE”, the “soluble on expression in E. coli” value is listed as “not soluble”.

Consider “MKKRHLLSLLALGISTACYGETYPAPIGPSQSDFGGVGLLQTPTARMAREGELSLNYRDNDQYRYYSASVQLFPWLETTLRYTDVRTRQYSSVEAFSGDQTYKDKAFDLKLRLWEESYWLPQVAVGARDIGGTGLFDAEYLVASKAWGPFDFTLGLGWGYLGTSGNVKNPLCSASDKYCYRDNSYKQAGSIDGSQMFHGPASLFGGVEYQTPWQPLRLKLEYEGNNYQQDFAGKLEQKSKFNVGAIYRVTDWADVNLSYERGNTFMFGVTLRTNFNDLRPSYNDNARPQYQPQPQDAILQHSVVANQLTLLKYNAGLADPQIQAKGDTLYVTGEQVKYRDSREGIIRANRIVMNDLPDGIKTIRITENRLNMPQVTTETDVASLKNHLAGEPLGHETTLAQKRVEPVVPQSTEQGWYIDKSRFDFHIDPVLNQSVGGPENFYMYQLGVMGTADLWLTDHLLTTGSLFANLANNYDKFNYTNPPQDSHLPRVRTHVREYVQNDVYVNNLQANYFQHLGNGFYGQVYGGYLETMFGGAGAEVLYRPLDSNWAFGLDANYVKQRDWRSAKDMMKFTDYSVKTGHLTAYWTPSFAQDVLVKASVGQYLAGDKGGTLEIAKRFDSGVVVGGYATITNVSKEEYGEGDFTKGVYVSVPLDLFSSGPTRSRAAIGWTPLTRDGGQQLGRKFQLYDMTSDRSVNFRLEHHHHHH”, for which the “soluble on expression in E. coli” value is on record as “not soluble”. Next, “MKKSKRKNAQAQEAQETEVLVQEEAEELPEFPEGEPDPDLEDPDLTLEDDLLDLPEEGEGLDLEEEEEDLPIPKISTSDPVRQYLHEIGQVPLLTLEEEVELARKVEEGMEAIKKLSEITGLDPDLIREVVRAKILGSARVRHIPGLKETLDPKTVEEIDQKLKSLPKEHKRYLHIAREGEAARQHLIEANLRLVVSIAKKYTGRGLSFLDLIQEGNQGLIRAVEKFEYKRRFKFSTYATWWIRQAINRAIADQARTIRIPVHMVETINKLSRTARQLQQELGREPTYEEIAEAMGPGWDAKRVEETLKIAQEPVSLETPIGDEKDSFYGDFIPDEHLPSPVDAATQSLLSEELEKALSKLSEREAMVLKLRKGLIDGREHTLEEVGAFFGVTRERIRQIENKALRKLKYHESRTRKLRDFLD”: “soluble”; “MKKSNIKTLEQFKDQNYGKKGTAKRDSLEMGYDTFKIGALIQEARIEKGMTQEELAIKCGTTKSYISRIENNIKEVRISTLQKIVELGFGGQLQLSIKF”: “not soluble”.
